Source: article PMC6104973

Assays:
CD47 (Homo sapiens) = CD47 (Homo sapiens) (UniProt Q08722); conditions: cited from earlier work
ALX148 (human) = assay: SPR; hFcRn flowed (0-5000 nM) over ALX proteins captured on a GLC chip with immobilised human CD47 ECD; 25°C; PBS pH 5.8, 0.01% Tween-20; equilibrium analysis; apparent

UniProt Q08722, sequence (Q08722 19-323): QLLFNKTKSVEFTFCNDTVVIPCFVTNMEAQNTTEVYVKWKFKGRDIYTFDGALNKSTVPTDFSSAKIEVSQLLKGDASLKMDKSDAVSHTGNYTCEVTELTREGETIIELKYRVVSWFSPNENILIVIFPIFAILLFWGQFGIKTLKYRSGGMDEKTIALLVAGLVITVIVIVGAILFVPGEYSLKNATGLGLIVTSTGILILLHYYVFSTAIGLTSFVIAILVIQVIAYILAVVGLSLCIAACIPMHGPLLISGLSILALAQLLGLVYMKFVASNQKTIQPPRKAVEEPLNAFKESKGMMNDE

Row | Kd (ALX148 (human)) [nM] | Substance | Kd (CD47 (Homo sapiens)) [nM]
1 |  | SIRPα (from UniProt P78324) | 1000
2 | 580 | human neonatal Fc receptor (FcRn) (from UniProt P55899 24-297) | 
